{
  "source": "paper PMC8100869",
  "about": "(Biochemistry, 2020)",
  "proteins": {"B1": {"name": "Catabolite Activator Protein (CAP) (natural protein)", "chain": "VLGKPQTDPTLEWFLSHCHIHKYPSKSTLIHQGEKAETLYYIVKGSVAVLIKDEEGKEMILSYLNQGDFIGELGLFEEGQERSAWVRAKTACEVAEISYKKFRQLIQVNPDILMRLSAQMARRLQVTSEKVGNLAFLDVTGRIAQTLLNLAKQPDAMTHPDGMQIKITRQEIGQIVGCSRETVGRILKMLEDQNLISAHGKTIVVYGTR"}},
  "target": "the molecule itself",
  "test": "crystal structure",
  "data": [
    {"protein": "B1", "values": [
      {"measurement": "binding result", "result": "binds"}
    ]}
  ]
}
